Key:
[1] = target: 23 amino acid synthetic M2e peptide of A/Fort Worth/1/50 (influenza A virus H1N1 A/Fort Worth/1/50); assay: ELISA on 23mer M2e peptide coated at 1 µg/ml
SEQ ID NO 273 = assay: peptide ELISA, mAb 5 µg/mL
SEQ ID NO 307 = assay: peptide ELISA, mAb 5 µg/mL
SEQ ID NO 308 = assay: peptide ELISA, mAb 5 µg/mL

“chimeric mouse V-region/human IgG1 kappa 14C2 antibody” was tested, and the EC50 [1] was 0.01 µg/mL.

B1: 23K12 (TCN-031) (antibody, V domains shown)
VH: EVQLVESGGGLVQPGGSLRISCAASGFTVSSNYMSWVRQAPGKGLEWVSVIYSGGSTYYADSVKGRFSFSRDNSKNTVFLQMNSLRAEDTAVYYCARCLSRMRGYGLDVWGQGTTVTVS
VL: DIQMTQSPSSLSASVGDRVTITCRTSQSISSYLNWYQQKPGKAPKLLIYAASSLQSGVPSRFSGSGSGTDFTLTISGLQPEDFATYYCQQSYSMPAFGQGTKLEIK
Molecule B1 has an ELISA A450 (SEQ ID NO 273) of 0.22, an ELISA A450 (SEQ ID NO 307) of 0.58 and an ELISA A450 (SEQ ID NO 308) of 0.62.

— US20140363441A1 (priority 2013, published 2014)
